Measured values from PMC3364743.

Molecular target: T1, CAV1–mCherry (caveolin-1 fused to mCherry), Q03135
T1 chain: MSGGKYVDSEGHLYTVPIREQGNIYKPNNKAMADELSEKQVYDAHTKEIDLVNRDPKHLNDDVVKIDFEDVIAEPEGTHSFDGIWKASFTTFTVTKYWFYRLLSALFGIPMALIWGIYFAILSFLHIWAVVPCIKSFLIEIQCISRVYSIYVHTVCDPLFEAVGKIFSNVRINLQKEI
Experiment: FRET or BRET
Settings: remark: other sources report otherwise

- FRET efficiency: 48%
B1: CAV1–mCherry (caveolin-1 fused to mCherry), Q03135 1-178 (natural protein)
chain: T1 chain
